Target: BACE1 (Homo sapiens, UniProt P56817)
Experiment: HTRF BACE1 enzyme activity assay (long peptide Bi27)
Type: biochemical
Conditions: purified affinity matured Fabs
Experimental: The HTRF assay was performed as follows. […] The proteolytic reaction mixture was incubated at ambient temperature for 75 minutes and was quenched by the addition of 5 μL HTRF detection mixture containing 2 nM Streptavidin-D2 and 150 nM of 6E10 anti-amyloid beta antibody (Covance, Emoryville, Calif.) labeled with Europium cryptate in detection buffer (200 mM Tris pH 8.0, 20 mM EDTA, 0.1% BSA, and 0.8M KF). The final reaction mixture was incubated at ambient temperature for 60 minutes and the TR-FRET signal was measured using an EnVision Multilabel Plate Reader™ (Perkin-Elmer) at an excitation wavelength of 320 nm and emission wavelengths of 615 and 665 nm. Reactions lacking BACE1 enzyme (0 BACE) and reactions containing lacking anti-BACE1 antibodies (PBS (100% BACE1 Activity) were used as controls.
Fab proteins of 6 clones were purified and subjected for HTRF enzyme activity assay, as described above.
The affinity matured YW412.8.31 anti-BACE1 antibody was tested in a HTRF assay as described in Example 1. […] Additionally, reactions using a short FRET peptide (Rh-[…]-quencher (SEQ ID NO:54), Invitrogen) were also performed identically to the HTRF reactions. The resulting fluorogenic products from the control reactions were measured as above, but at an excitation wavelength of 545 nm and an emission wavelength of 585 nm. Obtained data were analyzed using GraphPad Prism 5™ (LaJolla, Calif.).

BACE1, sequence (P56817 22-457): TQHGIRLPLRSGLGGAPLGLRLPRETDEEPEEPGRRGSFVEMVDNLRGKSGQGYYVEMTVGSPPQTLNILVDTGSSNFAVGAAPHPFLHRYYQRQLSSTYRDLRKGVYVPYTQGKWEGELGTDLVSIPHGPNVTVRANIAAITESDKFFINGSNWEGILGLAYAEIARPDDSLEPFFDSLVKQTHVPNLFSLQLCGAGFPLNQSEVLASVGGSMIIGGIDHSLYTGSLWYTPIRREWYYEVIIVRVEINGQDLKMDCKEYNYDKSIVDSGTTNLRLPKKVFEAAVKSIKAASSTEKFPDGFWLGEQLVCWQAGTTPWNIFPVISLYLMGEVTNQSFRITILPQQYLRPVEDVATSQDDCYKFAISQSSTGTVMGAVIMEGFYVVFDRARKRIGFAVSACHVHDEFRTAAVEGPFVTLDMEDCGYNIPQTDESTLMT

Molecule	inhibition activity compared to parent Fab
LC4: affinity matured clone derived from Fab5 (antibody, V domains shown) VL: DIQMTQSPSSLSASVGDRVTITCRASQSVSSAVAWYQQKPGKAPKLLIYSASSLYSGVPSRFSGSGSGTDFTLTISSLQPEDFATYYCQQYSYSLLTFGQGTKVEIK VH: EISEVQLVESGGGLVQPGGSLRLSCAASGFNLSYSYIHWVRQAPGKGLEWVASIYSSYGSTYYADSVKGRFTISADTSKNTAYLQMNSLRAEDTAVYYCARSYHHSDKYYYAWSYALDYWGQGTLVTVSS	significant improved inhibition
LC40 (antibody, V domains shown) VL: DIQMTQSPSSLSASVGDRVTITCRASQYSYSYSVAWYQQKPGKAPKLLISYASYLYSGVPSRFSGSGSGTDFTLTISSLQPEDFATYYCQQYSYSYSPITFGQGTKVEIK VH: EISEVQLVESGGGLVQPGGSLRLSCAASGFNVSSSSMHWVRQAPGKGLEWVASIYPYSSSTSYADSVKGRFTISADTSKNTAYLQMNSLRAEDTAVYYCARYSYYSYGIDYWGQGTLVTVSS	lost its inhibition activity

— patent US9879094B2, “Nucleic acid molecules encoding for BACE1 antibodies” (Genentech, Inc., priority 2010, dated 2018)
